Reference: publication PMC3538687, “Detection of Cyclic Diguanylate G-Octaplex Assembly and Interaction with Proteins”

How the values were obtained:
[1] = biological target: T1, HIV-1 reverse transcriptase (HIV RT) (HIV-1 (HXB2 strain), UniProt P04585;P04585 588-1147;588-1027); experiment: competition (DRaCALA); conditions: protein: commercial; copies: 1;1
[2] = biological target: T1, HIV-1 reverse transcriptase (HIV RT); experiment: competition (DRaCALA); unlabeled PF1 vs 5 nM 32P-PF1; 960 nM RT; conditions: protein: commercial; copies: 1;1
Thrombin protease = Thrombin protease (UniProt P00734;P00734 328-363;364-622); experiment: DRaCALA; 8 µM thrombin; DRaCALA on dry nitrocellulose, 10 min at room temperature; binding buffer and pH not given in the material. cdiGMP G8/M/D binding (a cyclic dinucleotide ligand)

Row | Binder | binding result [1] | also measured
1 | TAATACCCCCCCTTCGGTGCAAAGCACCGAAGGGGGGG (structured_DNA) [38 NT SELEX] | binds | –
2 | CGCCTGACCCTTCAGGCGTTGGGTGGGTGGGTGGG (structured_DNA) [S4] | binds | –
3 | AGGAAGGCTTTAGGTCTGAGATCTCGGAAT (structured_DNA) [PF1] | – | IC50 [2]: 4 µM
4 | GGTTGGTGTGGTTGG (structured_DNA) [TBA25] | – | binding result (Thrombin protease): binds
